From patent publication US20200299373A1

Legend:
[1] = biological target: recombinant human FAM19A5 protein (His-tagged) (human) (UniProt Q7Z5A7); assay: ELISA on N'-Term His FAM19A5, fit of the titration; R2 printed 0.9422
[2] = biological target: recombinant human FAM19A5 protein (His-tagged) (human) (UniProt Q7Z5A7); assay: ELISA on N'-Term His FAM19A5, fit of the titration (OD 492 nm); R2 printed 0.9422
[3] = biological target: recombinant human FAM19A5 protein (His-tagged) (human) (UniProt Q7Z5A7); assay: ELISA on N'-Term His FAM19A5, fit of the titration; poor fit, R2 printed -0.2016
[4] = biological target: recombinant human FAM19A5 protein (His-tagged) (human) (UniProt Q7Z5A7); assay: ELISA on N'-Term His FAM19A5, fit of the titration (OD 492 nm); R2 printed -0.2016
[5] = biological target: recombinant human FAM19A5 protein (His-tagged) (human) (UniProt Q7Z5A7); assay: ELISA on N'-Term His FAM19A5, fit of the titration; R2 printed 0.9813
[6] = biological target: recombinant human FAM19A5 protein (His-tagged) (human) (UniProt Q7Z5A7); assay: ELISA on N'-Term His FAM19A5, fit of the titration (OD 492 nm); R2 printed 0.9813
[7] = biological target: recombinant human FAM19A5 protein (His-tagged) (human) (UniProt Q7Z5A7); assay: ELISA on N'-Term His FAM19A5, fit of the titration; R2 printed 0.9105
[8] = biological target: recombinant human FAM19A5 protein (His-tagged) (human) (UniProt Q7Z5A7); assay: ELISA on N'-Term His FAM19A5, fit of the titration (OD 492 nm); R2 printed 0.9105
[9] = biological target: recombinant human FAM19A5 protein (His-tagged) (human) (UniProt Q7Z5A7); assay: ELISA on coated FAM19A5, as in Example 6
[10] = biological target: recombinant human FAM19A5 protein (His-tagged) (human) (UniProt Q7Z5A7); assay: ELISA on N'-Term His FAM19A5, fit of the titration (OD 492 nm); R2 printed 0.9303
[11] = biological target: recombinant human FAM19A5 protein (His-tagged) (human) (UniProt Q7Z5A7); assay: ELISA, His-FAM19A5 (positive control) coated on the plate, absorbance at 492 nm
[12] = biological target: recombinant human FAM19A5 protein (His-tagged) (human) (UniProt Q7Z5A7); assay: two-site sandwich ELISA; capture antibody 3-2; biotinylated detection antibody 2-13; antigen in ng/mL
[13] = biological target: recombinant human FAM19A5 protein (His-tagged) (human) (UniProt Q7Z5A7); assay: two-site sandwich ELISA; capture antibody 1-65; biotinylated detection antibody 2-13; antigen in ng/mL
[14] = biological target: recombinant human FAM19A5 protein (His-tagged) (human) (UniProt Q7Z5A7); assay: two-site sandwich ELISA; capture antibody 13B4; biotinylated detection antibody 2-13; antigen in ng/mL
[15] = biological target: recombinant human FAM19A5 protein (His-tagged) (human) (UniProt Q7Z5A7); assay: two-site sandwich ELISA; capture antibody P2-A03; biotinylated detection antibody 2-13; antigen in ng/mL
[16] = biological target: recombinant human FAM19A5 protein (His-tagged) (human) (UniProt Q7Z5A7); assay: two-site sandwich ELISA; capture antibody P2-F11; biotinylated detection antibody 2-13; antigen in ng/mL
[17] = biological target: recombinant human FAM19A5 protein (His-tagged) (human) (UniProt Q7Z5A7); assay: two-site sandwich ELISA; capture antibody 3-2; S/N = O.D. at 10 ng/mL antigen / O.D. at 0 ng/mL; O.D. in column 0 printed 0.38
[18] = biological target: recombinant human FAM19A5 protein (His-tagged) (human) (UniProt Q7Z5A7); assay: two-site sandwich ELISA; capture antibody 1-65; S/N = O.D. at 10 ng/mL antigen / O.D. at 0 ng/mL; O.D. in column 0 printed 0.44
[19] = biological target: recombinant human FAM19A5 protein (His-tagged) (human) (UniProt Q7Z5A7); assay: two-site sandwich ELISA; capture antibody P2-F11; S/N = O.D. at 10 ng/mL antigen / O.D. at 0 ng/mL; O.D. in column 0 printed 0.4
[20] = biological target: recombinant human FAM19A5 protein (His-tagged) (human) (UniProt Q7Z5A7); assay: two-site sandwich ELISA; capture antibody P2-A03; S/N = O.D. at 10 ng/mL antigen / O.D. at 0 ng/mL; O.D. in column 0 printed 0.39
[21] = biological target: recombinant human FAM19A5 protein (His-tagged) (human) (UniProt Q7Z5A7); assay: two-site sandwich ELISA; capture antibody 13B4; S/N = O.D. at 10 ng/mL antigen / O.D. at 0 ng/mL; grey cell; cells 10 and 0 under recheck
[22] = biological target: recombinant human FAM19A5 protein (His-tagged) (human) (UniProt Q7Z5A7); assay: ELISA on N'-Term His FAM19A5, fit of the titration; R2 printed 0.9303; the text gives about 2.77 nM for 2-13, which on the sheet stands under 13F7
[23] = biological target: recombinant human FAM19A5 protein (His-tagged) (human) (UniProt Q7Z5A7); assay: ELISA on N'-Term His FAM19A5, fit of the titration (OD 492 nm); R2 printed 0.2002
[24] = biological target: recombinant human FAM19A5 protein (His-tagged) (human) (UniProt Q7Z5A7); assay: ELISA on N'-Term His FAM19A5, fit of the titration (OD 492 nm); R2 printed 0.1299

B1: P2-C12 (antibody, V domains shown)
VH: QSLEESGGRLVTPGTPLTLTCTVSGFSLSTYAVTWVRQAPGKGLEWIGYINWRGGTSYANWAKGRFTISKTSSTTVDLKMTSPTTEDTATYFCARDASSGAAFGSYGMDPWGPGTLVTVSS
VL: ELDMTQTPSSVSAAVGGTVTIKCQASQSISSYLSWYQQKPGQPPKLLIYEASKLASGVPSRFSGSGYGTEFTLTISDLECADAATYYCQQGYSSTNVWNAFGGGTNVEIKR
Kd [1]: 7.64 nM
Bmax [2]: 1.73

B2: P1-A08 (antibody, V domains shown)
VH: QSLEESGGRLVTPGTPLTLTCTASGFSLSTYYMSWVRQAPGKGLEWIGIVYPSGTTYYANWAKGRFTISTASTTVDLMITSPTTEDTATYFCARGDSFGYGLWGPGTLVTVSS
VL: ELVLTQSPSVQVNLGQTVSLTCTADTLSRSYASWYQQKPGQAPVLLIYRDTSRPSGVPDRFSGSSSGNTATLTISGAQAGDEADYYCATSDGSGSNYQYVFGGGTQLTVTR
Kd [3]: 6.95 nM
Bmax [4]: 0.479

B3: P1-A03 (antibody, V domains shown)
VH: QSVEESGGRLVTPGTPLTLTCTVSGFSLSSDYMSWVRQAPGEGLEWIGIIYPSTTTYYASWAKGRFTISKTSSTTVELKMTSLTTEDTATYFCARGSNWSSGMNLWGPGTLVTVSS
VL: ELVMTQTPPSLSASVGETVRIRCLASEDIYSGISWYQQKPEKPPTLLISGASNLESGVPPRFSGSGSGTDYTLTIGGVQAEDAATYYCLGGYSYSSTGLTFGAGTNVEIKR
Kd [5]: 7.5 nM
Bmax [6]: 2.45

B4: P2-A01 (antibody, V domains shown)
VH: QEQLVESGGRLVTPGTPLTLSCTASGFFLSGYYMSWVRQAPGKGLEWIGIIYPSGSTDYASWAKGRFTISKTSTTVDLKITTPTTEDTATYFCARVAGYVGYGYETFFDIWGPGTLVTVSL
VL: ELVMTQTPPSLSASVGETVRIRCLASEDIYSGISWYQQKPGKPPTLLIYGASNLESGVPPRFSGSGSGSDYTLTIGGVQAEDAATYYCLGGVTYSSTGTHLTFGAGTNVEIKR
Kd [7]: 9.09 nM
Bmax [8]: 1.19

B5: anti-FAM19A5 antibody 2-13 (antibody, V domains shown)
VH: AVTLDESGGGLQTPGGALSLVCKASGFTFSSHGMFWVRQTPGKGLEYVAEITNDGSGTNYGSAVKGRATISRDNGQSTVRLQLNNLRAEDTGTYFCARSTYECPGGFSCWGDTGQIDAWGHGTEVIVSS
VL: ALTQPSSVSANPGETVKITCSGGSYSYGWFQQKSPGSALVTVIYWDDERPSDIPSRFSGALSGSTNTLTITGVQADDEAVYFCGTEDISGTAGVFGAGTTLTVL
Kd [9]: 2.77 nM
Bmax [10]: 2.41
O.D. [11]: 3.6
O.D., antigen 100 [12]: 2.01
O.D., antigen column 10 [12]: 1.97
O.D., antigen 100 [13]: 2.02
O.D., antigen column 10 [13]: 1.8
O.D., antigen 100 [14]: 1.48
O.D., antigen 100 [15]: 1.88
O.D., antigen column 10 [15]: 1.07
O.D., antigen 100 [16]: 1.94
O.D., antigen column 10 [16]: 1.91
S/N [17]: 5.1
S/N [18]: 4.1
S/N [19]: 4.8
S/N [20]: 2.7
S/N [21]: 1.1
Kd [22]: 1.96 nM

B6: P2-F07 (antibody, V domains shown)
VH: QSLEESGGRLVTPGTPLTLTCTASGFSLSSYYMNWVRQAPGKGLEWIGIIYPSGTTYYAGWAKGRFTISKTSTTVDLKITSPTSEDTATYFCARTVSGYFDIWGPGTLVTVSL
VL: ELDLTQTPPSLSASVGGTVTINCLASEDIYSALAWYQQKPGKPPTLLISGTSNLESGVPPRFSGSGSGTDYTLTIGGVQAEDAATYFCQGYSSYPLTFGAGTNVEIKR
Bmax [23]: 0.134

B7: P1-F02 (antibody, V domains shown)
VH: QSLEESGGRLVTPGTPLTLTCTASGFSLSNYYMGWVRQAPGEGLEWIGIIYASGSTYYASWAKGRFTISKTSTTVDLKMTSLTTEDTATYFCARIDIGVGDYGWAYDRLDLWGQGTLVTVSS
VL: ELDMTQTPPSLSASVGETVRIRCLASEDIYSGISWYQQKPGKPPTLLIYGASNLESGVPPRFSGSGSGTDYTLTIGGVQAEDAATYYCLGGYSYSSITFGAGTNVEIKR
Bmax [24]: 0.172
